In patent US7521540B2, “CYR61 compositions and methods” (Munin Corporation, priority 1996, dated 2009):

Key:
[1] = system: 1064SK human skin fibroblasts; experiment: Human skin fibroblast migration; assay type: cell-based; details: 1064SK cells
[2] = Heparin binding assay (salt elution from heparin-Sepharose/agarose)
HUVE cells [3] = experiment: HUVE cell adhesion to hCyr61-coated plates; assay type: cell-based, human; details: serum-free conditions
Experimental: Immunological plates (96-well ProBind assay plates, Falcon) were coated with 0.1-30 μg/ml hCyr61, fibronectin (Gibco BRL) or vitronectin (Gibco BRL) in phosphate-buffered saline (PBS) containing 0.1% protease-free BSA (Sigma) for 16 hrs at 4° C. The wells were blocked with 1% BSA in PBS for 1 hr at room temperature and washed with PBS. […] In some experiments, fbs was added to 5-10%. Also, in experiments involving vitronectin-coateci plates, endogenous vitronectin was removed from fbs by immunoaffinity chromatography using bovine polyclonal anti-vitronectin antibodies (Gibco). Norris et al., J. Cell Sci. 95:255-262 (1990). Cells were plated at 10^4 cells/well. After 2 hours, cells were fixed with 4% paraformaldehyde, stained with methylene blue and quantified as described. Oliver et al., J. Cell Sci. 92:513-518 (1989).
The ability of HUVE cells to adhere to hCyr61-coated plates in the presence of mock-immunodepleted fbs and serum immunodepleted with anti-bovine vitronectin antibodies were compared. […] The addition of vitronectin (30 μg/ml) to vitronectin-immunodepleted serum restored the ability of HUVE cells to adhere and spread on hCyr61-coated plates to the same level observed when whole serum was used in the cell attachment assay. […]
Additionally, HUVE cell attachment and spreading in the presence of an increasing quantity of vitronectin was examined. […]

NIH 3T3 cells = details: U.S. Pat. No. 5,408,040; cited from earlier work
cornea = experiment: Cornea assay for angiogenic factors; assay type: in vivo, rat; details: rat, in vivo
Description: Another assay for modulators of angiogenesis is an in vivo assay for assessing the effect of a suspected modulator in the presence of an ECM signaling molecule-related biomaterial, such as Cyr61, on angiogenesis is the Cornea Assay. The Cornea Assay takes advantage of the absence of blood vessels in the cornea, which in the presence of an angiogenic factor, results in the detectable development of capillaries extending from the sclera into the cornea. Friedlander et al., Science 270:1500-1502 (1995). This ingrowth of new blood vessels from the sclera can be microscopically monitored. Further, the visually determined rate of migration can be used to assess changes in the rate of angiogenesis. These cornea assays may be performed using a wide variety of animal models. Preferably, the cornea assays are performed using rats. By way of example, an assay for suspected modulators of Cyr61 using this assay is disclosed. To perform this assay, Cyr61 is initially titrated using primary capillary endothelial cells to determine effective concentrations of Cyr61. Subsequently, Cyr61, in the presence or absence of a suspected modulator, is surgically implanted into the corneas of mammalian laboratory animals, e.g., rabbits or rats. In a preferred embodiment, Cyr61 (or Cyr61 and a suspected modulator) is embedded in a biocompatible matrix, using matrix materials and techniques that are standard in the art. Subsequently, eyes containing implants are visually observed for growth of the readily visible blood vessels within the eye. Control implantations may consist of physiologically balanced buffers embedded in the same type of matrix and implanted into eyes of the same type of laboratory animal receiving the Cyr61-containing implants.
Although rats of various sizes can be used in the cornea assay, a preferred size for the rats is 150-200 g/animal. Anesthesia is induced with Methoxyflurane and is maintained for 40-60 minutes with sodium pentobarbital (50 mg/kg, delivered intraperitoneally). The eyes are gently opened and secured in place by clamping the upper eyelid with a non-traumatic hemostat. Two drops of sterile proparacaine hydrochloride (0.5%) are then placed on each eye as to effect local anesthesia. Using a suitable surgical blade such as a No. 11 Bard Parker blade, an approximately 1.5 mm incision is made approximately 1 mm from the center of the cornea. […] Once the cornea pocket is made, the spatula is removed and the distance between the limbus and base of the pocket is measured to make sure the separation is at least about 1 mm. […]
Following surgery, animals are examined daily for seven days with the aid of a stereomicroscope to check for inflammation and responses. […] During this seven day period, animals are monitored for implant position and corneal exudate. […]

[4] = system: 1064SK primary human foreskin fibroblasts; experiment: Fibroblast adhesion assay (methylene blue, A620); assay type: cell-based; details: protein coated on wells
Experimental: The ability of Cyr61 to mediate cell adhesion in normal fibroblasts was investigated. Microtiter wells were coated with purified recombinant Cyr61 protein, and 1064SK primary human foreskin fibroblasts were allowed to adhere under serum-free conditions. […] 50 μl cell suspensions were plated on microtiter wells coated with varying concentrations (0.5-5.0 μg/ml) of Cyr61 protein. After incubation at 37° C. for 30 minutes, adherent cells were fixed and stained with methylene blue.
In another experiment, microtiter wells were coated with either BSA, Cyr61 (2 μg/ml), or vitronectin (VN; 0.5 μg/ml) and blocked with affinity-purified anti-Cyr61 antibodies for one hour at 37° C. before 1064SK cells were plated.
The effects of divalent cations in cell adhesion to Cyr61 was also investigated. […] Data are means from triplicate determinations. […] Inhibition by Ca^2+ is characteristic of adhesion through some members of the β1 family of integrins, including receptors that bind type I collagen, laminin, and vitronectin (integrins α2β1, α6β1, and αVβ1) in fibroblasts, as well as the lymphocyte-specific integrin αLβ2.
The effects of RGD peptides on Cyr61-mediated fibroblast binding was tested by plating cells in wells coated with Cyr61 (2 μg/ml). Type I collagen (2 μg/ml) or vitronectin (0.5 μg/ml), 2 mM GRGDSP or GRGESP peptide was then added.
Cells were also pre-incubated with 40 μg/ml monoclonal antibodies against the integrin α5 or the integrin αV subunits at room temperature for 30 minutes, then plated on wells coated with Cyr61 (2 μg/ml), vitronectin (0.5 μg/ml) or fibronectin (FN, 1 μg/ml). […] The data are means, representative of three experiments.
The 1064 SK cells were also analyzed using the monoclonal antibody JBIA, which binds the β1 integrin subunit. Cells were pre-incubated with the antibody (50 μg/ml) before plating on microtiter wells coated with Cyr61 (2 μg/ml), Type I collagen (2 μg/ml), or vitronectin (0.5 μg/ml). […] Data are means, representative of three experiments.
To identify the specific β1 integrin that mediates fibroblast adhesion to Cyr61, the inhibitory effects of function-blocking monoclonal antibodies were tested against various integrin α subunits. […] The data are means, representative of at least three experiments.

HUVE cells [5] = experiment: HUVE cell adhesion to wild-type and double-mutant Cyr61; assay type: cell-based, human
Experimental: Immobilized cells were stained with methylene blue and absorbances (A620) were recorded. relative binding capacities (binding of cells not exposed to a pre-incubation compound defined as 100%) are presented in Table III.

[6] = system: primary human foreskin fibroblasts; experiment: Cyr61-regulated gene expression (multi-gene blot, Northern); assay type: cell-based
Experimental: Purified, soluble, recombinant Cyr61 protein was added to cultures of primary human foreskin fibroblasts for 24 hours. From these cells, mRNA was isolated for preparation of probes to hybridize to a multi-gene blot (Clontech Atlas Human Array 1.2 cat no. 7850-1) containing about 650 genes. The levels of expression of these genes in Cyr61-treated cells were compared to that of control cells. […] These findings have been confirmed by Northern blot analysis showing increases or decreases of the mRNAs in question in Cyr61-treated cells. A time course of expression changes has been established. In particular, by 6 hours after its addition, Cyr61 has induced expression of VEGF-A mRNA and the induction is still evident at 12 and 24 hours post-addition. Also at 12 and 24 hours post-addition, Cyr61 has induced expression of VEGF-A polypeptide. With respect to VEGF-C, induction of mRNA is clearly evident 12 hours after addition of Cyr61 and the induction persists at least through 24 hours post-addition. Cyr61 is expected to induce the expression of VEGF-C polypeptide with similar kinetics.

Row | Molecule | migration of human fibroblasts [1] | heparin binding [2] | HUVE cell attachment and spreading (HUVE cells [3]) | migration of NIH 3T3 and BASM cells (reported) (NIH 3T3 cells) | angiogenic effect in cornea assay (cornea) | support of 1064SK fibroblast adhesion [4] | HUVEC binding (HUVE cells [5]) | induction of VEGF, MMP1, MMP3 etc. [6] | NaCl concentration of elution from heparin-Sepharose/agarose ([2]; increasing salt concentrations)
1 | human Cyr61: Human Cyr61, 381 amino acids, SEQ ID NO:4, expressed in the baculovirus system (protein, listed as Homo sapiens) MSSRIARALALVVTLLHLTRLALSTCPAACHCPLEAPKCAPGVGLVRDGCGCCKVCAKQLNEDCSKTQPCDHTKGLECNFGASSTALKGICRAQSEGRPCEYNSRIYQNGESFQPNCQHQCTCIDGAVGCIPLCPQELSLPNLGCPNPRLVKVTGQCCEEWVCDEDSIKDPMEDQDGLLGKELGFDASEVELTRNNELIAVGKGRSLKRLPVFGMEPRILYNPLQGQKCIVQTTSWSQCSKTCGTGISTRVTNDNPECRLVKETRICEVRPCGQPVYSSLKKGKKCSKTKKSPEPVRFTYAGCLSVKKYRPKYCGSCVDGRCCTPQLTRTVKMRFRCEDGETFSKNVMMIQSCKCNYNCPHANEAAFPFYRLFNDIHKFRD | induced migration of the human fibroblast cells | quantitatively bound to heparin-agarose | mediated cell attachment but not spreading | – | – | – | – | – | –
2 | CTGF: Human ortholog of Fisp12, SEQ ID NO:8 (protein, listed as Homo sapiens) MTAASMGPVRVAFVVLLALCSRPAVGQNCSGPCRCPDEPAPRCPAGVSLVLDGCGCCRVCAKQLGELCTERDPCDPHKGLFCDFGSPANRKIGVCTAKDGAPCIFGGTVYRSGESFQSSCKYQCTCLDGAVGCMPLCSMDVRLPSPDCPFPRRVKLPGKCCEEWVCDEPKDQTVVGPALAAYRLEDTFGPDPTMIRANCLVQTTEWSACSKTCGMGISTRVTNDNASCRLEKQSRLCMVRPCEADLEENIKKGKKCIRTPKISKPIKFELSGCTSMKTYRAKFCGVCTDGRCCTPHRTTTLPVEFKCPDGEVMKKNMMFIKTCACHYNCPGDNDIFESLYYRKMYGDMA | – | – | – | reported to induce the migration | confirm the effect of angiogenic factors | – | – | – | –
3 | DM: Cyr61 double mutant with both heparin-binding motifs mutated (SEQ ID NO:30 region) (protein) TCPAACHCPLEAPKCAPGVGLVRDGCGCCKVCAKQLNEDCSKTQPCDHTKGLECNFGASSTALKGICRAQSEGRPCEYNSRIYQNGESFQPNCKHQCTCIDGAVGCIPLCPQELSLPNLGCPNPRLVKVSGQCCEEWVCDEDSIKDSLDDQDDLLGLDASEVELTRNNELIAIGKGSSLKRLPVFGTEPRVLFNPLHAHGQKCIVQTTSWSQCSKSCGTGISTRVTNDNPECRLVKETRICEVRPCGQPVYSSSLKAGAACSATAKSPEPVRFTYAGCSSVAAYAPKYCGCVDGRCCTPLQTRTVKMRFRCEDGEMFSKNVMMIQSCKCNYNCPHPNEASFRLYSLFNDIHKFRD | – | severely deficient in heparin binding | – | – | – | unable to support 1064SK fibroblast adhesion at any concentration tested | still mediated HUVEC binding | do not induce the expression of the above-referenced genes | up to 0.25 M NaCl
